Data on one molecule can be found in paper PMC10548113, “Modeling a variant of unknown significance in the Drosophila ortholog of the human cardiogenic gene NKX2.5”.

Data set [1] addresses T1, MBP-Tin HD (WT) (Drosophila melanogaster, UniProt P22711 301-360).
T1 sequence: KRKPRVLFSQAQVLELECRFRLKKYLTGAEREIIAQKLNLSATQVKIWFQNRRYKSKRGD
The experiment in a line: EMSA; 1.5 ug protein; competed by 300-fold excess unlabelled WT; EMSA: 40 mM KCl, 15 mM HEPES pH 7.9, 1 mM EDTA, 0.5 mM DTT, 5% glycerol, 4 ug poly-dIdC; temperature not stated. To be noted: protein: recombinant; tags: N-terminal MBP; label: radioactive (probe); only one strand given. In general terms: A gel shift assay detects complexes by their altered migration in electrophoresis.

In data set [2] the target is T2, MBP-Tin R321N HD (Drosophila melanogaster, UniProt P22711 301-360, R321N).
T2 sequence: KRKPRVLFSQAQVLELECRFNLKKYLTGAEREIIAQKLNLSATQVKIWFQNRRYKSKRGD
The experiment in a line: EMSA; 1.5 ug protein, equal to WT; EMSA: 40 mM KCl, 15 mM HEPES pH 7.9, 1 mM EDTA, 0.5 mM DTT, 5% glycerol, 4 ug poly-dIdC; temperature not stated. To be noted: protein: recombinant; tags: N-terminal MBP; label: radioactive (probe); only one strand given.

B1: Mp Tin1 site (dsDNA)
DNA 1: GGACTCTTTGGCTGAAGTGTCCGGTGAAA
DNA 2: TTTCACCGGACACTTCAGCCAAAGAGTCC
On to B1, for which the binding result in data set [1] was “binds”. Further, the binding signal in data set [2] is 7 % of WT band intensity.
